{"source": "paper PMC6600395", "about": "“p53 Binds Preferentially to Non-B DNA Structures Formed by the Pyrimidine-Rich Strands of GAA·TTC Trinucleotide Repeats Associated with Friedreich’s Ataxia”", "binders": {"B1": {"name": "FXN-TNB (structured_DNA)", "DNA 1": "GGGGCCTTAGGTATTTTCTTTATTTTCTTCTTCTTCTTCTTCTTTTTTTTTTTTTTTTGTATTTTTTATGGTACCGCGG", "DNA 2": "CCGCGGTACCATTACCTAAGGCCCCAAC"}, "B2": {"name": "TTCNB (structured_DNA)", "DNA 1": "GGGGCCTTAGGTATTCTTCTTCTTCTTCTTCTTCTTCTTCTTCTTCATGGTACCGCGG", "DNA 2": "CCGCGGTACCATTACCTAAGGCCCCAAC"}, "B3": {"name": "CTGNB (structured_DNA)", "DNA 1": "GGGGCCTTAGGTACTGCTGCTGCTGCTGCTGCTGCTGCTGCTGCTGATGGTACCGCGG", "DNA 2": "CCGCGGTACCATTACCTAAGGCCCCAAC"}, "B4": {"name": "TNB (structured_DNA)", "DNA 1": "GGGGCCTTAGGTATTTTTTTTTTTTTTTTTTTTTTTTTTTTTTTTTATGGTACCGCGG", "DNA 2": "CCGCGGTACCATTACCTAAGGCCCCAAC"}, "B5": {"name": "CON (p53CON) (dsDNA)", "DNA 1": "GACGGTATCGATAAGAGACATGCCTAGACATGCCTCTTGATATCGAATTC", "DNA 2": "GAATTCGATATCAAGAGGCATGTCTAGGCATGTCTCTTATCGATACCGTC"}}, "key": {"[1]": {"molecular_target": "T1, p53 (wild type, full length) (human, UniProt P04637 1-393)", "T1 sequence (P04637 whole entry)": "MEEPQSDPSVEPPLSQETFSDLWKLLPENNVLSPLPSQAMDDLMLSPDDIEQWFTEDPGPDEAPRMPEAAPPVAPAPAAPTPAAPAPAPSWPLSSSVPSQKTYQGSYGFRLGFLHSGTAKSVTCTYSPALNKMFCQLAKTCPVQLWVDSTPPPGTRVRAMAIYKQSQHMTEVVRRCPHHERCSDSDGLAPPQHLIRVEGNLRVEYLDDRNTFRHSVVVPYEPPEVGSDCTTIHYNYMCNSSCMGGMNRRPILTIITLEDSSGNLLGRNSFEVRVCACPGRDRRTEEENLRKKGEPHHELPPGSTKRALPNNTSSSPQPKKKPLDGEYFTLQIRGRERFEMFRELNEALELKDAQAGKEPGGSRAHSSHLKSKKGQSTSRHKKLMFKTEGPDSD", "experiment": "EMSA; stronger than TTCNB and FXN-ANB; 50 ng pBSK/SmaI; EMSA: 5 mM Tris-HCl pH 7.6, 0.5 mM EDTA, 0.5 mM DTT, 0.01% Triton X-100, 50 mM KCl, 15 min on ice (agarose 4 °C), pBSK/SmaI competitor in PAGE EMSA; ELISA: same without EDTA, 4 °C, 20 min", "conditions": "protein: recombinant; tags: none stated for pT7-7wtp53 (Methods 3.3 says purified via GST tag); chain copies: 4; label: 5'-32P on Lock-F; lock clamp, Py-rich loop in strand 1; 3' overhang 3 nt on lock strand"}, "[2]": {"molecular_target": "p53CT (C-terminal segment) (human, UniProt P04637 320-393)", "sequence (P04637 320-393)": "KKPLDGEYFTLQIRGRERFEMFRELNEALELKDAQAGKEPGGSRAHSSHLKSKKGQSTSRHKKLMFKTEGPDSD", "experiment": "EMSA; 50 ng pBSK/SmaI competitor; EMSA: 5 mM Tris-HCl pH 7.6, 0.5 mM EDTA, 0.5 mM DTT, 0.01% Triton X-100, 50 mM KCl, 15 min on ice (agarose 4 °C), pBSK/SmaI competitor in PAGE EMSA; ELISA: same without EDTA, 4 °C, 20 min", "conditions": "protein: recombinant, tags: GST (GST-p53CT, pGEX-2TK), chain copies: 4, label: 5'-32P on Lock-F (EMSA), 3'-biotin on Lock-F (ELISA), lock clamp, 3' overhang 3 nt on lock strand"}, "[3]": {"molecular_target": "T2, p53CD (core domain) (human, UniProt P04637 94-312)", "T2 sequence (P04637 94-312)": "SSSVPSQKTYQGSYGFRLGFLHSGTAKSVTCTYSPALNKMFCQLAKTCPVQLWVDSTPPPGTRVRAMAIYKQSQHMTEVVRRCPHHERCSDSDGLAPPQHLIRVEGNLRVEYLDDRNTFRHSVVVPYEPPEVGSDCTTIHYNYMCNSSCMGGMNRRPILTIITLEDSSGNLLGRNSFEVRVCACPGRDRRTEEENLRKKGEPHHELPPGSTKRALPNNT", "experiment": "EMSA; no stable complex; 50 ng pBSK/SmaI; EMSA: 5 mM Tris-HCl pH 7.6, 0.5 mM EDTA, 0.5 mM DTT, 0.01% Triton X-100, 50 mM KCl, 15 min on ice (agarose 4 °C), pBSK/SmaI competitor in PAGE EMSA; ELISA: same without EDTA, 4 °C, 20 min", "conditions": "protein: recombinant, tags: GST (GST-p53CD, pGEX-4T), label: 5'-32P on Lock-F (EMSA), 3'-biotin on Lock-F (ELISA), lock clamp, 3' overhang 3 nt on lock strand"}, "[4]": {"molecular_target": "T1, p53 (wild type, full length)", "experiment": "EMSA; 75 ng pBSK/SmaI competitor; EMSA: 5 mM Tris-HCl pH 7.6, 0.5 mM EDTA, 0.5 mM DTT, 0.01% Triton X-100, 50 mM KCl, 15 min on ice (agarose 4 °C), pBSK/SmaI competitor in PAGE EMSA; ELISA: same without EDTA, 4 °C, 20 min", "conditions": "protein: recombinant, tags: none stated for pT7-7wtp53 (Methods 3.3 says purified via GST tag), chain copies: 4, label: 5'-32P on Lock-F (EMSA), 3'-biotin on Lock-F (ELISA), lock clamp, 3' overhang 3 nt on lock strand"}, "[5]": {"molecular_target": "T1, p53 (wild type, full length)", "experiment": "ELISA; Kd only in figure; EMSA: 5 mM Tris-HCl pH 7.6, 0.5 mM EDTA, 0.5 mM DTT, 0.01% Triton X-100, 50 mM KCl, 15 min on ice (agarose 4 °C), pBSK/SmaI competitor in PAGE EMSA; ELISA: same without EDTA, 4 °C, 20 min", "conditions": "protein: recombinant; tags: none stated for pT7-7wtp53 (Methods 3.3 says purified via GST tag); chain copies: 4; label: 5'-32P on Lock-F (EMSA); 3'-biotin on Lock-F (ELISA); lock clamp, T loop in strand 1; 3' overhang 3 nt on lock strand"}, "[6]": {"molecular_target": "T2, p53CD (core domain)", "experiment": "EMSA; 50 ng pBSK/SmaI competitor; EMSA: 5 mM Tris-HCl pH 7.6, 0.5 mM EDTA, 0.5 mM DTT, 0.01% Triton X-100, 50 mM KCl, 15 min on ice (agarose 4 °C), pBSK/SmaI competitor in PAGE EMSA; ELISA: same without EDTA, 4 °C, 20 min", "conditions": "protein: recombinant; tags: GST (GST-p53CD, pGEX-4T); chain copies: 4; label: 32P (EMSA); biotin (ELISA); blunt"}, "[7]": {"molecular_target": "T1, p53 (wild type, full length)", "experiment": "EMSA; strongest binder; 75 ng pBSK/SmaI competitor; EMSA: 5 mM Tris-HCl pH 7.6, 0.5 mM EDTA, 0.5 mM DTT, 0.01% Triton X-100, 50 mM KCl, 15 min on ice (agarose 4 °C), pBSK/SmaI competitor in PAGE EMSA; ELISA: same without EDTA, 4 °C, 20 min", "conditions": "protein: recombinant; tags: none stated for pT7-7wtp53 (Methods 3.3 says purified via GST tag); chain copies: 4; label: 32P (EMSA); biotin (ELISA); blunt"}, "[8]": {"conditions": "unpaired (TTC)11 loop in strand 1"}}, "data": [{"binder": "B1", "values": [{"measurement": "binding result", "setting": "[1]", "value": "binds"}]}, {"binder": "B2", "values": [{"measurement": "binding result", "setting": "[2]; [8]", "value": "binds"}, {"measurement": "binding result", "setting": "[3]; [8]", "value": "no binding"}, {"measurement": "binding result", "setting": "[4]; [8]", "value": "binds"}]}, {"binder": "B3", "values": [{"measurement": "binding result", "setting": "[2]; (CTG)11 hairpin in strand 1", "value": "binds"}, {"measurement": "binding result", "setting": "[3]; (CTG)11 hairpin in strand 1", "value": "no binding"}, {"measurement": "binding result", "setting": "[4]; (CTG)11 hairpin in strand 1", "value": "binds"}]}, {"binder": "B4", "values": [{"measurement": "binding result", "setting": "[2]; T loop in strand 1", "value": "binds"}, {"measurement": "binding result", "setting": "[3]; T loop in strand 1", "value": "no binding"}, {"measurement": "binding result", "setting": "[5]", "value": "binds"}]}, {"binder": "B5", "values": [{"measurement": "binding result", "setting": "[6]", "value": "binds"}, {"measurement": "binding result", "setting": "[7]", "value": "binds"}]}]}
